This note sets out measurements from patent US20030068675, “Position dependent recognition of GNN nucleotide triplets by zinc fingers” (published 2003).

Holding throughout (assay): EMSA
Common to all, as to conditions: tags: MBP fusion
On the technique in general: A gel shift assay detects complexes by their altered migration in electrophoresis.

One data set deals with ZFP SBS#1138 (synthetic). An outline of the steps: (§1)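 Purified ZFP was titrated against labeled double-stranded target (1 nM or lower, at least 10-fold below expected Kd) carrying the natural binding site with flanks. Binding buffer was 10 mM Tris pH 7.5, 100 mM KCl, 1 mM MgCl2, 0.1 mM ZnCl2, 5 mM DTT, 10% glycerol, 0.02% BSA, with equilibration for at least 45 min. Bound and free target were separated on a 10% polyacrylamide gel.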

For a further data set, the target named is ZFP SBS#1158 (synthetic). An outline of the steps: as §1
In a further data set the target is T1, ZFP SBS#1159 (synthetic).
T1 chain: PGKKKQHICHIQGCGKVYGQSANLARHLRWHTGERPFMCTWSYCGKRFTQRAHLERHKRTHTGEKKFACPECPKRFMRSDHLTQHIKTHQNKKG
An outline of the steps: as §1

For a further data set, the target named is T2, ZFP SBS#1152 (synthetic).
T2 chain: T1 chain with A22G, N23H, Q50T, R51S, A52G, H53E, E55V, H81N
In short, it runs like this:
as §1

In another data set the target is T3, ZFP SBS#1153 (synthetic).
T3 chain: T1 chain with S21R, N23H, Q50T, R51S, A52G, H53E, E55V, H81N
An outline of the steps: as §1

Another data set addresses T4, ZFP SBS#1124 (synthetic).
T4 chain: T1 chain with A22G, N23H, Q50T, R51S, A52G, H53N, E55V, H81A, Q84R
In short, it runs like this: as §1

The next data set concerns the target T5, ZFP SBS#1136 (synthetic).
T5 chain: T1 chain with Q20R, A22D, N23A, A25T, H81T, T83R, Q84E
In short, it runs like this: as §1

In another data set the target is ZFP SBS#1137 (synthetic). In short, it runs like this:
as §1

A further data set has as its target T6, ZFP SBS#472 (synthetic).
T6 chain: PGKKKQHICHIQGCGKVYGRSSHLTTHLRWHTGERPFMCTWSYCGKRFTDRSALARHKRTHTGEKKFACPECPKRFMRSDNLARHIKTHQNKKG
In short, it runs like this:
as §1

Another data set has as its target T7, ZFP SBS#1133 (synthetic, UniProt P08047).
T7 chain: T1 chain with S21R, N23H, A25E, Q50T, R51S, A52G, H53E, E55V, T83S, Q84R
In short, it runs like this: as §1

For the next data set, the target named is T8, ZFP SBS#1132 (synthetic, UniProt P08047).
T8 chain: T1 chain with A22G, N23H, Q50T, R51S, A52G, H53E, E55V, T83S, Q84R
An outline of the steps: as §1

For another data set, the target named is T9, ZFP SBS#1130 (synthetic).
T9 chain: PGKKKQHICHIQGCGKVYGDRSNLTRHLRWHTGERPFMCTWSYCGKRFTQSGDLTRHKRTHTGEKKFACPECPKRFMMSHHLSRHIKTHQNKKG
In short, it runs like this:
as §1

The target in the next data set is T10, ZFP SBS#1148 (synthetic).
T10 chain: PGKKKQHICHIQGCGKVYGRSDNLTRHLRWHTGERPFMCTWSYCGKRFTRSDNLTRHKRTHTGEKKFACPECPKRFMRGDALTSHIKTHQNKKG
In short, it runs like this: as §1

The target in the next data set is ZFP SBS#1149 (synthetic). An outline of the steps:
as §1

Another data set has as its target T11, ZFP SBS#1090 (synthetic, UniProt P08047).
T11 chain: T10 chain with N23A, T25R, R26E, N53E, T55Q, G79S, A81N, S84Q
An outline of the steps: as §1

The next data set has as its target ZFP SBS#1168 (synthetic). An outline of the steps:
as §1

Another data set has as its target ZFP SBS#478 (synthetic, UniProt P08047). An outline of the steps:
as §1

The target in the next data set is ZFP SBS#477 (synthetic). In short, it runs like this:
as §1

The target of another data set is ZFP SBS#476 (synthetic, UniProt P08047). In short, it runs like this:
as §1

Another data set concerns the target T12, ZFP SBS#1161 (synthetic).
T12 chain: T6 chain with R20D, S21R, T25A, T26R, A53D, A55T
An outline of the steps:
as §1

For another data set, the target named is ZFP SBS#1134 (synthetic, UniProt P08047). An outline of the steps: as §1
The target of another data set is T13, ZFP SBS#1160 (synthetic).
T13 chain: T9 chain with N23H, T25A, G52S, D53N, T55V, M78R, H80D, S83T, R84T
An outline of the steps: as §1

The next data set concerns the target ZFP SBS#1135 (synthetic, UniProt P08047). In short, it runs like this:
as §1

The target in another data set is T14, ZFP SBS#1163 (synthetic).
T14 chain: T9 chain with D20E, S22G, N23D, D53H, R56T, M78R, H80D, H81A, S83T
In short, it runs like this: as §1

A further data set deals with T15, ZFP SBS#1164 (synthetic).
T15 chain: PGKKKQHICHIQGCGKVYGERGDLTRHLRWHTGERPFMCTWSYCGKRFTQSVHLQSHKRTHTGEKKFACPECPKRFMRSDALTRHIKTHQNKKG
An outline of the steps:
as §1

The target in a further data set is ZFP SBS#1166 (synthetic). In short, it runs like this: as §1
A further data set concerns the target ZFP SBS#1165 (synthetic). In short, it runs like this: as §1
The next data set addresses ZFP SBS#1167 (synthetic). An outline of the steps:
as §1

The target in another data set is T16, ZFP SBS#1154 (synthetic, UniProt P08047).
T16 chain: T10 chain with R26T, N53E, T55Q, G79S, T83R, S84E
An outline of the steps: as §1

For the next data set, the target named is T17, ZFP SBS#1091 (synthetic).
T17 chain: T9 chain with Q50R, G52D, D53N, T55A, M78Q, S79R, H80A, H81S, S83A
In short, it runs like this:
as §1

For a further data set, the target named is T18, ZFP SBS#1169 (synthetic).
T18 chain: T9 chain with Q50R, G52D, D53N, T55A, M78Q, H80S, H81S, S83V
In short, it runs like this:
as §1

The target of the next data set is T19, ZFP SBS#1100 (synthetic).
T19 chain: T15 chain with E20Q, R21S, D23A, Q50R, S51G, V52D, H53A, Q55T
In short, it runs like this:
as §1

Another data set deals with T20, ZFP SBS#1162 (synthetic).
T20 chain: T15 chain with E20Q, R21S, D23A, Q50R, S51A, V52D, H53A, Q55M, S56V
In short, it runs like this: as §1

Another data set concerns the target ZFP SBS#259 (synthetic). An outline of the steps: as §1

Residue numbers refer to the chain shown, from its start.

ZFP SBS#1138 (synthetic), sequence (chain, as listed by the source): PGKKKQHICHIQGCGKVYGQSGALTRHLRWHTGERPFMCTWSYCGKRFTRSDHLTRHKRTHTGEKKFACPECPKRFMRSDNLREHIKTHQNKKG

B1: CAGGGGGTA (dsDNA)
DNA 1: CAGGGGGTA
DNA 2: TACCCCCTG
Broadly, the Kd is the concentration at which binding is half-saturated. Higher therefore signals lower affinity. As for B1, in the data set with ZFP SBS#1138, the Kd stood at 27 pM.

B2: AGGGGAGAA (dsDNA)
DNA 1: AGGGGAGAA
DNA 2: TTCTCCCCT
As for B2, the Kd in the data set with ZFP SBS#1158 was 100 pM; in the data set with ZFP SBS#1159 it was 555 pM.

B3: AAGGCTGGA (dsDNA)
DNA 1: AAGGCTGGA
DNA 2: TCCAGCCTT
For B3, the dissociation constant (Kd) with ZFP SBS#1152 was 1600 pM; in the data set with ZFP SBS#1153, 8200 pM.

B4: GTGGATGGA (dsDNA)
DNA 1: GTGGATGGA
DNA 2: TCCATCCAC
B4 had a Kd in the data set with ZFP SBS#1124 of 101 pM.

B5: CCGGGAGTG (dsDNA)
DNA 1: CCGGGAGTG
DNA 2: CACTCCCGG
Turning to B5, the equilibrium dissociation constant (Kd) with ZFP SBS#1136 is 225 pM; with ZFP SBS#1137, 85 pM.

B6: GAGGTCTGGA (dsDNA)
DNA 1: GAGGTCTGGA
DNA 2: TCCAGACCTC
Consider B6, for which, in the data set with ZFP SBS#472, binding was put at a Kd of 80000 pM.

B7: GGGGCTGGA (dsDNA)
DNA 1: GGGGCTGGA
DNA 2: TCCAGCCCC
With B7, the equilibrium dissociation constant (Kd) was 500 pM in the data set with ZFP SBS#1133 and 55 pM in the data set with ZFP SBS#1132.

B8: GGTGCAGAC (dsDNA)
DNA 1: GGTGCAGAC
DNA 2: GTCTGCACC
Molecule B8 showed an equilibrium dissociation constant (Kd) with ZFP SBS#1130 of 100 pM.

B9: TTGGAGGAG (dsDNA)
DNA 1: TTGGAGGAG
DNA 2: CTCCTCCAA
On to B9, for which the values for the dissociation constant Kd with ZFP SBS#1148 and in the data set with ZFP SBS#1149 were 6 pM and 4 pM, respectively.

B10: AAGGCGCTG (dsDNA)
DNA 1: AAGGCGCTG
DNA 2: CAGCGCCTT
As for B10, the dissociation constant Kd with ZFP SBS#1090 was 30300 pM; in the data set with ZFP SBS#1168, 2800 pM.

B11: GGAGAGGATG (dsDNA)
DNA 1: GGAGAGGATG
DNA 2: CATCCTCTCC
Regarding B11, the results for the Kd with ZFP SBS#478, with ZFP SBS#477 and in the data set with ZFP SBS#476 were 60000 pM, 100000 pM and 80000 pM, respectively.

B12: GAGGCCGGC (dsDNA)
DNA 1: GAGGCCGGC
DNA 2: GCCGGCCTC
In the data set with ZFP SBS#1161, B12 displayed a Kd of 450 pM.

B13: TGGGGGTGG (dsDNA)
DNA 1: TGGGGGTGG
DNA 2: CCACCCCCA
Take B13: binding with ZFP SBS#1134 was characterised by a dissociation constant (Kd) of 67 pM.

B14: TGGGAAGGC (dsDNA)
DNA 1: TGGGAAGGC
DNA 2: GCCTTCCCA
B14 displayed a Kd in the data set with ZFP SBS#1160 of 415 pM.

B15: GCGGCGGGG (dsDNA)
DNA 1: GCGGCGGGG
DNA 2: CCCCGCCGC
In the case of B15, the dissociation constant (Kd) with ZFP SBS#1135 came out at 25 pM.

B16: GTGTGAGCC (dsDNA)
DNA 1: GTGTGAGCC
DNA 2: GGCTCACAC
With B16, the dissociation constant (Kd) was 1450 pM with ZFP SBS#1163 and 15400 pM with ZFP SBS#1164.

B17: GCGAAGGTG (dsDNA)
DNA 1: GCGAAGGTG
DNA 2: CACCTTCGC
For the molecule B17, the dissociation constant Kd with ZFP SBS#1166 stood at 195 pM; in the data set with ZFP SBS#1165, 1400 pM; with ZFP SBS#1167, 950 pM.

B18: CTGGCGTAG (dsDNA)
DNA 1: CTGGCGTAG
DNA 2: CTACGCCAG
With B18, the equilibrium dissociation constant (Kd) with ZFP SBS#1154 was found to be 1040 pM.

B19: GTAGAGGAC (dsDNA)
DNA 1: GTAGAGGAC
DNA 2: GTCCTCTAC
Take B19: the Kd with ZFP SBS#1091 is 85 pM; with ZFP SBS#1169, 53 pM.

B20: GTGTTGGTA (dsDNA)
DNA 1: GTGTTGGTA
DNA 2: TACCAACAC
For B20, the dissociation constant Kd with ZFP SBS#1100 was determined as 1400 pM; with ZFP SBS#1162 it was 465 pM.

B21: GCAGAGGAG (dsDNA)
DNA 1: GCAGAGGAG
DNA 2: CTCCTCTGC
B21 gave a dissociation constant Kd in the data set with ZFP SBS#259 of 250000 pM.
